Legend:
[1] = molecular target: T1, human CCL2 (MCP1) - wild type (wt) (human, UniProt P13500 24-99); assay: SPR Biacore T200, 25 C, pH 5.5, antibody captured via anti-human Fc, 1:1 model
T1 construct: Entry is without signal peptide; Made in-house or bought from R&D Systems (279-MC), depending on the assay; monomer-dimer equilibrium; also called wt human CCL2; hCCL2
Method: (§1) An antibody capture system was established. […] The capture system was regenerated by an injection at 20 μl/min with HBS buffer (100 mM HEPES pH 7.4, 1.5 M NaCl, 0.05% (w/v) Tween 20), followed by a 1 min 15 sec injection with 10 mM NaOH and two 10 mM glycine buffer pH 2.5 injections for 1 min. Antibodies were captured were injected for 30 sec at 10 μl/min at 80 nM concentration diluted in the respective system buffer. […] The analyte contact time was 3 min and the dissociation time was 10 min. Analyte kinetics were performed at 50 μl/min.
(§2) The Biaevaluation software V.3.0 was used according to the instructions of the manufacturer GEHC. A 1:1 binding model with RMAX local was applied to determine kinetic rates.

[2] = molecular target: T2, human CCL2 (MCP1) - P8A variant (human, UniProt P13500 24-99); assay: SPR Biacore T200, 37 C, antibody captured, CCL2 as analyte, 1:1 model
T2 construct: Entry is without signal peptide; P8A prevents dimer formation (pure monomer); made in-house; also called monomeric human CCL2; monomeric CCL2
Method: (§3) Antibody clone supernatants were diluted 1:2 in system buffer and were captured for 1 min at 5 μl/min. […] Analyte kinetics were performed at 30 μl/min. […] Analytes were injected at 90 nM highest concentration. The analyte contact time was 3 min and the dissociation time was 10 min. The Biaevaluation software V.3.0 was used according to the instructions of the manufacturer GEHC. A 1:1 binding model with RMAX local was applied to apparently estimate kinetic rates.

[3] = molecular target: T1, human CCL2 (MCP1) - wild type (wt); assay: as above
Method: as §3

[4] = molecular target: T1, human CCL2 (MCP1) - wild type (wt); assay: cell-based or functional assay
[5] = molecular target: T1, human CCL2 (MCP1) - wild type (wt); assay: SPR Biacore T200, 25 C, pH 7.4, antibody captured via anti-human Fc, 1:1 model
Method: as §1, §2

[6] = molecular target: T1, human CCL2 (MCP1) - wild type (wt); assay: SPR Biacore T200, 25 C, pH 8.3, antibody captured via anti-human Fc, 1:1 model
Method: as §1, §2

[7] = molecular target: T1, human CCL2 (MCP1) - wild type (wt); assay: SPR Biacore T200, 25 C, pH 5.9, antibody captured via anti-human Fc, 1:1 model
Method: as §1, §2

[8] = molecular target: T1, human CCL2 (MCP1) - wild type (wt); assay: SPR Biacore T200, 25 C, pH 7.1, antibody captured via anti-human Fc, 1:1 model
Method: as §1, §2

[9] = molecular target: T1, human CCL2 (MCP1) - wild type (wt); assay: SPR Biacore T200, 25 C, pH 7.9, antibody captured via anti-human Fc, 1:1 model
Method: as §1, §2

[10] = molecular target: T1, human CCL2 (MCP1) - wild type (wt); assay: SPR Biacore T200, 25 C, pH 6.7, antibody captured via anti-human Fc, 1:1 model
Method: as §1, §2

[11] = molecular target: T1, human CCL2 (MCP1) - wild type (wt); assay: SPR Biacore T200, 25 C, pH 6.3, antibody captured via anti-human Fc, 1:1 model
Method: as §1, §2

[12] = molecular target: T1, human CCL2 (MCP1) - wild type (wt); assay: SPR, 25 C, pH 7.4, antibody captured via anti-human Fc on C1 chip, wt CCL2 as analyte, 1:1 model
Method: The sample and system buffer was PBS-T (10 mM phosphate buffered saline including 0.05% Tween20) pH 7.4. The flow cell was set to 25° C.—and the sample block set to 12° C.—and primed with running buffer twice. The bispecific antibody was captured by injecting a 2 μg/ml solution for 60 sec at a flow rate of 10 μl/min. Association was measured by injection of human CCL2 (wt) in various concentrations in solution for 150 sec at a flow rate of 30 μl/min starting with 30 nM in 1:10 dilutions. The dissociation phase was monitored for up to 1200 sec and triggered by switching from the sample solution to running buffer. […] Bulk refractive index differences were corrected by subtracting the response obtained from a goat anti human IgG Fc surface. Blank injections are also subtracted (=double referencing). For calculation of kinetic parameters, the Langmuir 1:1 model was used.

Row | Binder | t½-diss. [1] [h] | T½ [2] [h] | T½ [3] [h] | IC50, inhibition of THP-1 migration towards recombinant huCCL2 [4] [µg/mL] | t½-diss. [5] [h] | t½-diss. [6] [h] | t½-diss. [7] [h] | t½-diss. [8] [h] | t½-diss. [9] [h] | t½-diss. [10] [h] | t½-diss. [11] [h] | binding result [12]
1 | Humanized 11K2 (antibody, human IgG1, V domains shown, Generated as human IgG1 wild type and IgG1 PGLALA with kappa light chain; also called CCL2-0002; humanized 11k2 IgG1) VH: QVQLVQSGAEVKKPGSSVKVSCKASGLTISDTYMHWVRQAPGQGLEWMGRIDPANGNTKFDPKFQGRVTITADTSTSTAYMELSSLRSEDTAVYYCARGVFGFFDYWGQGTTVTVSS VL: DIQMTQSPSSLSASVGDRVTITCKATEDIYNRLAWYQQKPGKAPKLLISGATSLETGVPSRFSGSGSGTDYTLTISSLQPEDFATYYCQQFWSAPYTFGGGTKVEIK | 1.97 | 1.93 | 1.97 | 0.7 | 2.72 | 19.2 | 4.78 | 3.58 | 2.75 | 4.87 | 19.2 | –
2 | ABN912 (antibody, human IgG1, V domains shown, Generated as human IgG1 wild type and IgG1 PGLALA with kappa light chain; also called AB912; CCL2-0003) VH: EVQLVQSGGGLVQPGGSLRLSCAASGFTFSHYWMSWVRQAPGKGLEWLANIEQDGSEKYYVDSVKGRFTISRDNAKNSLYLQMNSLRAEDTAVYFCARDLEGLHGDGYFDLWGRGTLVTVSS VL: AIQLTQSPSSLSASVGDRVILTCRASQGVSSALAWYQQKPGKAPKLLIYDASSLESGVPSRFSGSGSGPDFTLTISSLQPEDFATYFCQQFNSYPLTFGGGTKVEIK | 0.0005 | 0.417 | 0.55 | – | 0.55 | 0.583 | 0.0167 | 0.333 | 0.417 | 0.133 | 0.05 | –

The next lines start with the values.

Row | t½-diss. [1] [h] | T½ [2] [h] | T½ [3] [h] | IC50, inhibition of THP-1 migration towards recombinant huCCL2 [4] [µg/mL] | t½-diss. [5] [h] | t½-diss. [6] [h] | t½-diss. [7] [h] | t½-diss. [8] [h] | t½-diss. [9] [h] | t½-diss. [10] [h] | t½-diss. [11] [h] | binding result [12] | Binder
3 | – | – | – | – | – | – | – | – | – | – | – | binds | 1A4//2F6-PGLALA (bispecific antibody, V domains shown, CrossMab: 1A4 arm VH/VL crossed, 2F6 arm non-crossed with CH1/CL charge modifications, knobs-into-holes, human IgG1 with L234A, L235A, P329G; also called CCL2-0054; P1AA3459) VH 1: QSLEESGGDLVKPGASLTLTCTASELDFYWICWVRQAPGKGLEWIACIGAGSSGSTYYASWAKGRFTVSKTSSTTVTLQMTSLTAADTATYFCARTGTEFTYYSLWGPGTLVTVSS VL 1: ALVMTQTPSSVSAAVGGTVTINCQASQSVYNNNMAWYQQKPGQPPKLLIYTASSLASGVPSHFRGSGSGTQFTLTISDLESDDAATYYCAGYKSYSNDEYGFGGGTEVVVK VH 2: QSLEESGGGLVQPEGSLTLTCTASGFSFNNNYYMCWVRQAPGKGLEWIGCISTDDSNTHYASWAQGRFTISKASSTALTLQVAGLTVADMATYFCARDAHFTSYGYGFDLWGPGTLVTVSS VL 2: DIVMTQTPASVSAAVGGTVSINCRASEDIENLVAWYQQKPGQPPKLLIYQASKLASGVPSRFKGSGSGAEFTLTIGDLESADAATYYCQGDYGSGWIMYSFGGGTDLVVK
4 | – | – | – | – | – | – | – | – | – | – | – | binds | 1A4//2F6-WT IgG1 (bispecific antibody, V domains shown, CrossMab: 1A4 arm VH/VL crossed, 2F6 arm non-crossed with CH1/CL charge modifications, knobs-into-holes, human IgG1 wild type Fc; also called CCL2-0057; P1AA3400) VH 1: QSLEESGGDLVKPGASLTLTCTASELDFYWICWVRQAPGKGLEWIACIGAGSSGSTYYASWAKGRFTVSKTSSTTVTLQMTSLTAADTATYFCARTGTEFTYYSLWGPGTLVTVSS VL 1: ALVMTQTPSSVSAAVGGTVTINCQASQSVYNNNMAWYQQKPGQPPKLLIYTASSLASGVPSHFRGSGSGTQFTLTISDLESDDAATYYCAGYKSYSNDEYGFGGGTEVVVK VH 2: QSLEESGGGLVQPEGSLTLTCTASGFSFNNNYYMCWVRQAPGKGLEWIGCISTDDSNTHYASWAQGRFTISKASSTALTLQVAGLTVADMATYFCARDAHFTSYGYGFDLWGPGTLVTVSS VL 2: DIVMTQTPASVSAAVGGTVSINCRASEDIENLVAWYQQKPGQPPKLLIYQASKLASGVPSRFKGSGSGAEFTLTIGDLESADAATYYCQGDYGSGWIMYSFGGGTDLVVK

Source: patent publication US20240117029A1 (Hoffmann-La Roche, published 2024)
